According to paper PMC3326194 (Nature, 2012):

T1: CFeSP large subunit from Moorella thermoacetica (Moorella thermoacetica, UniProt Q07340 1-446)
T1 sequence (looked up): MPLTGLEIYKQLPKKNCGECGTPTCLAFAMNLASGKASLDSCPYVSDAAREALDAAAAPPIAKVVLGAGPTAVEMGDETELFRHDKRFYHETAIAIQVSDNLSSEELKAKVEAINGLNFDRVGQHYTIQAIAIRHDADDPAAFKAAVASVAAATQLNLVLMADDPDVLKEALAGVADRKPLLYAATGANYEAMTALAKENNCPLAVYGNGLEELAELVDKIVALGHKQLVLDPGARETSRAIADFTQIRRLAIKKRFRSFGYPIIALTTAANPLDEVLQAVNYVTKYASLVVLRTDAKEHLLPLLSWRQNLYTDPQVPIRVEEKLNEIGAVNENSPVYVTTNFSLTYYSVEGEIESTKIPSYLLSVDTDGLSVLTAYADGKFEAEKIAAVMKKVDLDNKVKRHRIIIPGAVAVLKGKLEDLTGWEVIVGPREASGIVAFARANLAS

T2: corrinoid iron-sulfur protein (CFeSP) from Moorella thermoacetica (Moorella thermoacetica, UniProt Q07340 1-446; Q07341 1-323)
T2 sequence (looked up) 1: T1 sequence (looked up)
T2 sequence (looked up) 2: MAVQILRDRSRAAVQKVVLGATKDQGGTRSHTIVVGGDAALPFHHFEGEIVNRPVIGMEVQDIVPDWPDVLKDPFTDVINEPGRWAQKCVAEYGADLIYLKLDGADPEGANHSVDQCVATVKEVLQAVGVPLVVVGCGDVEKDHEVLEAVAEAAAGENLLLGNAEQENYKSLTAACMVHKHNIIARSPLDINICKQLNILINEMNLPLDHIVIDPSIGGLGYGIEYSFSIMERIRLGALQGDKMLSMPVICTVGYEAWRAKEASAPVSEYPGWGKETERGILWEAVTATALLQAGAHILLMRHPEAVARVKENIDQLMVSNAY

B1: CFeSP small subunit from Moorella thermoacetica (natural protein, UniProt Q07341 1-323, looked up)
chain: T2 sequence (looked up) 2
B2: methyltransferase (MeTr) from Moorella thermoacetica (enzyme, UniProt Q46389 1-262, looked up)
chain: MLIIGERINGMFGDIKRAIQERDPAPVQEWARRQEEGGARALDLNVGPAVQDKVSAMEWLVEVTQEVSNLTLCLDSTNIKAIEAGLKKCKNRAMINSTNAEREKVEKLFPLAVEHGAALIGLTMNKTGIPKDSDTRLAFAMELVAAADEFGLPMEDLYIDPLILPANVAQDHAPEVLKTLQQIKMLADPAPKTVLGLSNVSQNCQNRPLINRTFLAMAMACGLDAAIADACDEALIETAATAEILLNQTVYCDSFVKMFKTR

Tests used:
Assay in all cases: crystal structure
[1] = biological target: T1, CFeSP large subunit from Moorella …
[2] = biological target: B1
[3] = biological target: the molecule itself
[4] = biological target: T2, corrinoid iron-sulfur protein (CFeSP) …

B1: binds [1].

B2 was tested, and the binding result [2] was “binds”, the “stoichiometry N” value [3] was 2 and the binding result [4] was “binds”.
